Here are results for 1 molecule from US20210063414A1, “METHODS FOR PREVENTING AND/OR TREATING BONE LOSS CONDITIONS BY MODULATING IRISIN” (Dana-Farber Cancer Institute, Inc., priority 2018, published 2021).

Test [1] addresses T1, MLO-Y4 cell surface proteins (Mus musculus, UniProt Q9D3P1).
T1 construct: endogenous in cells; host or cells: MLO-Y4
T1 sequence (Q9D3P1 1-638): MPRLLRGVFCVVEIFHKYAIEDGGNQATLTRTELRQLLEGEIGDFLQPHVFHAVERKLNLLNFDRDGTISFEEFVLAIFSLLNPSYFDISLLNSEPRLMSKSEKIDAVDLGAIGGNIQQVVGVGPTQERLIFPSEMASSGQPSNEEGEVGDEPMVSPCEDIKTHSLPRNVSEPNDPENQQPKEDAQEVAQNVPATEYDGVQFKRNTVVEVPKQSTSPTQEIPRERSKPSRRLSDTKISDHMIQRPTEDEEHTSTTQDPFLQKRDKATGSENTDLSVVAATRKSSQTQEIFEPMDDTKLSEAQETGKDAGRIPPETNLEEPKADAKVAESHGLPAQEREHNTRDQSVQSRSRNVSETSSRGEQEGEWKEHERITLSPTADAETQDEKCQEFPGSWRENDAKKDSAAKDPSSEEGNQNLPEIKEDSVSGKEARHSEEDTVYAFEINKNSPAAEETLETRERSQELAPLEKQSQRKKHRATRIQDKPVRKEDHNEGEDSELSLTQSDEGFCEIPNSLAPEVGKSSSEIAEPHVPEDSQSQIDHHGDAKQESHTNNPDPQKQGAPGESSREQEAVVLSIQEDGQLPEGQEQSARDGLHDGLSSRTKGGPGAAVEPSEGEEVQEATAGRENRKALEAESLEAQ
The test can be described thus: Crosslinking/co-immunoprecipitation/mass spectrometry (TMT quantitative proteomics) to identify irisin receptors. The test is classed as binding. The conditions noted are these: co-precipitated protein Tchhl1 (TCHL1_MOUSE). On the procedure:
(§1) MLO-Y4 cells were seeded on 30×150 mm type-I collagen coated dishes as described in cell culture experiment. At 60% cell density, medium was switched to FreeStyle™ 293 Expression medium. After 4 hours incubation, the cells were chilled on ice for 10 minutes, followed by treatment of 10 nM his-tag irisin or his-tag adipsin for 20 minutes. The cells were then incubated with 1.5 mM DTSSP for 30 minutes on ice to do cross-linking, after washing with 15 ml cold PBS twice. The cross-linking was quenched by addition of a final concentration of 20 mM Tris-pH 7.5. The cells were then harvested and homogenized in 1 ml RIPA buffer containing proteaseinhibitor cocktailand phosphatase-inhibitor cocktail. Whole-cell lysates were homogenized by 10 times passages through a 22G needle fitted to a 3 ml syringe. Homogenized samples were rotated gently in cold room for 20 minutes followed by 15,000×g centrifugation for 10 minutes. After addition of a final concentration of 10 mM imidazole, supernatants were incubated with 100 μl Ni-NTA agarose for 1 hour. After centrifugation at 500×g for 1 minute, the supernatants were aspirated and 1 ml cold RIPA buffer containing 10 mM imidazole were added to the agarose. After 10 minutes rotation in cold room, the supernatants were aspirated and 1 ml cold RIPA buffer containing 30 mM imidazole were added to the agarose. After repeating the washing 3 times, 0.8 ml RIPA buffer containing 250 mM imidazole was added and the agarose was gently rotated in a cold room for 20 minutes. After centrifugation at 1000×g for 2 minutes, the supernatants were transferred to 1.5 ml tube and incubated with 100 μl 0.2% sodium deoxycholate and 100 μl 10% trichloroacetic acid in ice for 1 hour. After centrifugation at 12,000×g for 10 minutes at 4° C., the supernatants were removed and 1 ml cold acetone was added to the pellets followed by vortexing for 10 seconds. After one more washing with cold acetone, the pellets were dried at 37° C., and 39 μl PBS and 13 μl 4×NuPAGE LDS were added to the pellets with a final concentration of 5 mM DTT. Solubilized proteins were incubated at 65° C. for 20 minutes followed by incubation with a final concentration of 14 mM iodoacetamide for 45 minutes in the dark. 38 μl samples were loaded to 4-12% gradient SDS-PAGE for separation followed by Coomassie Blue staining. The gels were submitted to quantitative proteomics.
(§2) For in-gel digestions, gels were stained with Coomassie Blue and were excised into 8 equal segments for control and irisin lanes. Gel pieces were destained and dehydrated with 100% acetonitrile, vacuumed dried, and digested in 25 mM HEPES (pH 8.5) with 500 ng sequencing grade trypsin (Promega) and incubated for an overnight at 37° C. (Shevchenko et al. (1996) Anal. Chem. 68:850-858). Digests were treated with 1% formic acid and purified using C18 Stage-Tips as previously described (Rappsilber et al. (2007) Nat. Protoc. 2:1896-1906). Peptides were eluted with 70% acetonitrile and 1% formic acid, then dried using a speedvac. Isobaric labeling of digested peptides was accomplished using 6-plex tandem mass tag (TMT) reagents (Thermo Fisher Scientific, Rockford, Ill.). Reagents, 5.0 mg, were dissolved in 252 μl acetonitrile (ACN) and 5 μl of the solution was added to the digested peptides dissolved in 25 μl of 200 mM HEPES, pH 8.5. After 1 hour at room temperature, the reaction was quenched by adding 1 μl of 5% hydroxylamine. Labeled peptides were combined and acidified prior to C18 Stage-Tips desalting.
(§3) All LC-MS/MS experiments were performed on an Orbitrap Fusion™ Lumos mass spectrometer (Thermo Fisher Scientific, San Jose, Calif., USA) coupled with a Proxeon EASY-nLC™ 1200 LC pump (Thermo Fisher Scientific). Peptides were separated on a 100 μm inner diameter microcapillary column packed with 35 cm of Accucore™ C18 resin (1.8 μm, 100 Å, Thermo Fisher Scientific). […]

The target in test [2] is T2, MLO-Y4 cell surface proteins (Mus musculus, UniProt Q9CYR0).
T2 construct: endogenous in cells; host or cells: MLO-Y4
T2 sequence (Q9CYR0 17-152): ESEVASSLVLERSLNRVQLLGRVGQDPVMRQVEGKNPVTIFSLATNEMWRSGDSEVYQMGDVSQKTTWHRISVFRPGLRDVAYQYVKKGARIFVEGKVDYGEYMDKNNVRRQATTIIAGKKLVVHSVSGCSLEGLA
The test is described as above. The test is classed as binding. As to conditions: co-precipitated protein Ssbp1 (SSBP_MOUSE). As for the experimental part: as §1, §2, §3

B1: irisin: secreted cleaved form of FNDC5; recombinant human/mouse irisin with C-terminal his tag produced in HEK293 cells (protein)
chain: DSPSAPVNVTVRHLKANSAVVSWDVLEDEVVIGFAISQQKKDVRMLRFIQEVNTTTRSCALWDLEEDTEYIVHVQAISIQGQSPASEPVLFKTPREAEKMASKNKDEVTMKE
modifications: left off: small tags and cut ends
notes: secreted cleaved form of FNDC5; recombinant human/mouse irisin with C-terminal his tag produced in HEK293 cells
B1: the TMT signal-to-noise ratio in test [1] worked out at 23.5307; in test [2], 244.754. Besides, the “irisin/adipsin TMT signal-to-noise ratio” value in test [1] was found to be 0.013; in test [2] it was 0.566.
